# Results as given in the supplement of paper PMC7125110.
# ± gives the standard error. For part of these data: This sample holds only a part of the variants without activity.
# B1: glmS ribozyme (parent)
# chain: AUAAAAGCGCCAGAACUACAGAAAUGUAGUUGACGAGGAGGAGGUUUAUCGAAUUUUCGGCGGAUGCCUCCAAA
# Columns and labels:
# Details in all cases: with glucosamine-6-phosphate
# glucosamine-6-phosphate [1] = variants of: B1; experiment: kcat; higher = faster cleavage; RNA array
# Procedure, shortened: (§1)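 kobs was derived by fitting per-tile medians to one- or two-exponential decays after normalising signals to baseline and to non-cleaving reference variants. Those signals came from barcoded ribozyme variants transcribed in situ by E. coli RNA polymerase on sequenced MiSeq chips, followed through a hybridised Cy3 probe at 37 °C and imaged over ~14 h. Glucosamine-6-phosphate (40 μM to 10 mM) in HEPES/KCl/Mg(OAc)2 buffer was flowed in. Weighted Michaelis–Menten fits across concentrations then gave kcat and KM.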
# glucosamine-6-phosphate [2] = variants of: B1; experiment: KM; higher = weaker cofactor use; RNA array
# Procedure, shortened: as §1
# glucosamine-6-phosphate [3] = variants of: B1; experiment: self-cleavage kobs at 160 uM GlcN6P; higher = faster cleavage; RNA array
# Procedure, shortened: as §1
# glucosamine-6-phosphate [4] = variants of: B1; experiment: self-cleavage kobs at 640 uM GlcN6P; higher = faster cleavage; RNA array
# Procedure, shortened: as §1
# glucosamine-6-phosphate [5] = variants of: B1; experiment: self-cleavage kobs at 2500 uM GlcN6P; higher = faster cleavage; RNA array
# Procedure, shortened: as §1
# glucosamine-6-phosphate [6] = variants of: B1; experiment: self-cleavage kobs at 10000 uM GlcN6P; higher = faster cleavage; RNA array
# Procedure, shortened: as §1
# glucosamine-6-phosphate [7] = variants of: B1; experiment: self-cleavage kobs at 40 uM GlcN6P; higher = faster cleavage; RNA array
# Procedure, shortened: as §1
Variant,kcat (glucosamine-6-phosphate [1]) [s⁻¹],KM (glucosamine-6-phosphate [2]) [µM],self-cleavage kobs at 160 uM GlcN6P (glucosamine-6-phosphate [3]) [s⁻¹],self-cleavage kobs at 640 uM GlcN6P (glucosamine-6-phosphate [4]) [s⁻¹],self-cleavage kobs at 2500 uM GlcN6P (glucosamine-6-phosphate [5]) [s⁻¹],self-cleavage kobs at 10000 uM GlcN6P (glucosamine-6-phosphate [6]) [s⁻¹],self-cleavage kobs at 40 uM GlcN6P (glucosamine-6-phosphate [7]) [s⁻¹]
U55A U65C,0.000613 ± 6.7e-05,1160 ± 230,7.83e-05 ± 1.4e-05,0.0002 ± 2.9e-05,0.000471 ± 6.1e-05,0.000505 ± 9.2e-05,
C50G G59U C68G,8.8e-05 ± 8.6e-06,,,0.000101 ± 3e-05,0.000102 ± 2.2e-05,7.83e-05 ± 1.5e-05,6.82e-05 ± 2.8e-05
C50U U56G,1.91e-05 ± 1.3e-06,829 ± 360,< 1e-05,,,,
G63U C68A,1.22e-05 ± 2.6e-06,,,,,,
G59A,8.71e-05 ± 2.2e-06,1670 ± 170,,2.2e-05 ± 1.9e-06,5.42e-05 ± 1.8e-06,7.42e-05 ± 1.2e-06,
G59U,5.77e-05 ± 1.4e-06,1210 ± 130,,1.83e-05 ± 1.7e-06,4.03e-05 ± 1.3e-06,5.11e-05 ± 9.9e-07,< 1e-05
G51U U56C,< 1e-05,,< 1e-05,< 1e-05,,,< 1e-05
C50G U56C,1.76e-05 ± 2.6e-06,,,,,,
U65C C67U,0.000111 ± 9.1e-06,2040 ± 650,,,7.62e-05 ± 2.6e-05,9.15e-05 ± 1e-05,
A52C U57C,3.44e-05 ± 6.5e-06,,,,4.64e-05 ± 1.6e-05,2.95e-05 ± 1e-05,
G59U C68G,2.57e-05 ± 4.8e-06,,,,,,
A53U C70A,0.000125 ± 2.5e-05,,7.24e-05 ± 1.2e-05,0.000117 ± 1.3e-05,,,4.52e-05 ± 7.1e-06
C50A C61U C70U,3.88e-05 ± 1.2e-05,,,,,,
U55G C68G,9.78e-05 ± 1e-05,345 ± 170,,6.54e-05 ± 1.3e-05,7.64e-05 ± 1.5e-05,0.000104 ± 1.7e-05,
G62U C70G,1.57e-05 ± 2.7e-06,,,,,,
A53C C70G,8.19e-05 ± 3.8e-06,438 ± 110,,5.26e-05 ± 9.1e-06,6.51e-05 ± 9.9e-06,7.97e-05 ± 7.3e-06,
C50A C61G,2.25e-05 ± 7e-06,,,,,,
U56A U57A,0.000351 ± 3.9e-05,3720 ± 820,,4.44e-05 ± 1.7e-05,0.000155 ± 3.3e-05,0.00025 ± 4.4e-05,
A53C G66C,0.000476 ± 8.1e-05,2510 ± 780,,9.27e-05 ± 1.9e-05,0.00034 ± 0.00011,0.000368 ± 6.5e-05,
C58A U69C,0.000112 ± 1.3e-05,640 ± 220,3.58e-05 ± 1.2e-05,4.91e-05 ± 1e-05,9.46e-05 ± 2.2e-05,0.000107 ± 1.5e-05,
